According to PMC10377191, “The Crystal Structure of the Hsp90-LA1011 Complex and the Mechanism by Which LA1011 May Improve the Prognosis of Alzheimer’s Disease” (Biomolecules, 2023):

Target: T1, yeast Hsp90 (yeast, UniProt P02829 1-709)
T1 construct: yeast Hsp90 as used in the ITC experiments; probably the full-length protein was used (surmise)
Test: ITC; 400 μM FKBP51 or FKBP51-Δ7He injected into 30 μM Hsp90; 20 mM Tris pH 7.5, 5 mM NaCl, 30 °C
Details: both partners purified

T1 sequence (P02829 whole entry): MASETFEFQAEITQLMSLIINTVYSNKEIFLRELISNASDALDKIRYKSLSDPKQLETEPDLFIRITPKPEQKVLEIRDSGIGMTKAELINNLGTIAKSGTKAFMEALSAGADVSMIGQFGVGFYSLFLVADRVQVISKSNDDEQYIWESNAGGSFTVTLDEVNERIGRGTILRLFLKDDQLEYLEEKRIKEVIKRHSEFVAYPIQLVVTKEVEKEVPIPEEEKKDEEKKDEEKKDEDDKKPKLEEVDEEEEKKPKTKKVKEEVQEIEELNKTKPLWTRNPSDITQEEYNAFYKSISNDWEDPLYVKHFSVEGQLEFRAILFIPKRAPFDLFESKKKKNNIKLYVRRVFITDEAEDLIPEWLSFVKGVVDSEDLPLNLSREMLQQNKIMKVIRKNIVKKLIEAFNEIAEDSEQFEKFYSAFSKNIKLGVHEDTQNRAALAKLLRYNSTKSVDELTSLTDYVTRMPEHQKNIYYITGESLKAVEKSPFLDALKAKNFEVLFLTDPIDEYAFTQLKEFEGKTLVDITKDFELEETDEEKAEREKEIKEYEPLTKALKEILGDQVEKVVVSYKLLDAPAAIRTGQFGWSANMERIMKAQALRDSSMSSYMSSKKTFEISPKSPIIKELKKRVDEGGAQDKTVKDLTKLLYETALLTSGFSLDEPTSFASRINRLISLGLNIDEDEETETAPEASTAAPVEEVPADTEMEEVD

B1: FKBP51-Δ7He (lacking residues 401–457 of the extended 7th helix of the TPR domain) (domain or fragment, UniProt Q13451 1-400, looked up)
chain: MTTDEGAKNNEESPTATVAEQGEDITSKKDRGVLKIVKRVGNGEETPMIGDKVYVHYKGKLSNGKKFDSSHDRNEPFVFSLGKGQVIKAWDIGVATMKKGEICHLLCKPEYAYGSAGSLPKIPSNATLFFEIELLDFKGEDLFEDGGIIRRTKRKGEGYSNPNEGATVEIHLEGRCGGRMFDCRDVAFTVGEGEDHDIPIGIDKALEKMQREEQCILYLGPRYGFGEAGKPKFGIEPNAELIYEVTLKSFEKAKESWEMDTKEKLEQAAIVKEKGTVYFKGGKYMQAVIQYGKIVSWLEMEYGLSEKESKASESFLLAAFLNLAMCYLKLREYTKAVECCDKALGLDSANEKGLYRRGEAQLLMNEFESAKGDFEKVLEVNPQNKAARLQISMCQKKAKE
notes: FKBP51 lacking residues 401–457 (the helical extension of the 7th helix of the TPR domain), that is, ending at residue 400; also called FKBP51-Δ7He mutant; FKBP51 mutant lacking the helical extension; source: gift of constructs from D. Southworth
For B1, the Kd was 11.6 µM and the “stoichiometry N” value was 1.25 FKBP51-Δ7He per Hsp90.
